In patent US20230303681A1 one finds MFI data, which are given here for three substances.

This experiment has as its target mouse TMEM106B (mouse) (UniProt Q80X71). Nature of the experiment: FACS Neuro2a.

Regarding Negative ctrl #1 (antibody), the MFI came out at 220.

On to Negative ctrl #2 (antibody), for which the MFI came to 235.

For Negative ctrl #3 (antibody), the MFI came to 216.
